{"source": "the supplement of paper PMC9112550", "about": "“Optimization of the antimicrobial peptide Bac7 by deep mutational scanning” (BMC Biology, 2022);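 note: peptides expressed intracellularly from a pBAD plasmid library in pooled LB shake-flask culture, induced with 0.3% L-arabinose, DNA abundance read by NGS, three biological replicates, DESeq2 with apeglm shrinkage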"}
{"test_system": "Escherichia coli TOP10", "experiment": "shrunken log2 fold change of peptide-encoding DNA abundance (4.5 h post-induction vs induction); higher = less antimicrobial activity (less host growth inhibition)", "conditions": "time post-induction: 4.5 h; library: site-saturation at positions 5, 18, 19, 20"}
{"sequence": "RRIRTRPPRLPRPRPRPPAVPRP", "shrunken log2 fold change": 0.292}
{"sequence": "RRIRPRPPRLPRPRPRPAPTPRP", "shrunken log2 fold change": 0.704}
{"sequence": "RRIRERPPRLPRPRPRPYPEPRP", "shrunken log2 fold change": -0.918}
{"sequence": "RRIRKRPPRLPRPRPRPNLPPRP", "shrunken log2 fold change": 0.118}
{"sequence": "RRIRCRPPRLPRPRPRPCDMPRP", "shrunken log2 fold change": -0.277}
{"sequence": "RRIRYRPPRLPRPRPRPHPVPRP", "shrunken log2 fold change": -0.185}
{"sequence": "RRIRARPPRLPRPRPRPSNIPRP", "shrunken log2 fold change": -0.447}
{"sequence": "RRIRQRPPRLPRPRPRPQLSPRP", "shrunken log2 fold change": -0.0914}
{"sequence": "RRIRERPPRLPRPRPRPMVIPRP", "shrunken log2 fold change": -0.0351}
{"sequence": "RRIRQRPPRLPRPRPRPKHNPRP", "shrunken log2 fold change": -0.368}
{"sequence": "RRIRDRPPRLPRPRPRPITVPRP", "shrunken log2 fold change": -0.0979}
{"sequence": "RRIRGRPPRLPRPRPRPQWEPRP", "shrunken log2 fold change": 0.0931}
{"sequence": "RRIRTRPPRLPRPRPRPSGTPRP", "shrunken log2 fold change": -0.0272}
{"sequence": "RRIRWRPPRLPRPRPRPKQNPRP", "shrunken log2 fold change": 0.3}
{"sequence": "RRIRKRPPRLPRPRPRPFTHPRP", "shrunken log2 fold change": 0.0159}
{"sequence": "RRIRKRPPRLPRPRPRPREAPRP", "shrunken log2 fold change": 1.44}
{"sequence": "RRIRGRPPRLPRPRPRPAVRPRP", "shrunken log2 fold change": 0.312}
{"sequence": "RRIRSRPPRLPRPRPRPFNAPRP", "shrunken log2 fold change": -0.459}
{"sequence": "RRIRMRPPRLPRPRPRPTFEPRP", "shrunken log2 fold change": -0.0436}
{"sequence": "RRIRKRPPRLPRPRPRPPSEPRP", "shrunken log2 fold change": 0.413}
{"sequence": "RRIRGRPPRLPRPRPRPDINPRP", "shrunken log2 fold change": 1.68}
{"sequence": "RRIRVRPPRLPRPRPRPPVTPRP", "shrunken log2 fold change": -0.0902}
{"sequence": "RRIRPRPPRLPRPRPRPYYAPRP", "shrunken log2 fold change": -0.709}
{"sequence": "RRIRKRPPRLPRPRPRPYTCPRP", "shrunken log2 fold change": -0.175}
{"sequence": "RRIRPRPPRLPRPRPRPDVWPRP", "shrunken log2 fold change": 0.266}
{"sequence": "RRIRFRPPRLPRPRPRPPSWPRP", "shrunken log2 fold change": 0.4}
{"sequence": "RRIRGRPPRLPRPRPRPDWQPRP", "shrunken log2 fold change": 0.336}
{"sequence": "RRIRQRPPRLPRPRPRPGTYPRP", "shrunken log2 fold change": 0.00894}
{"sequence": "RRIRERPPRLPRPRPRPVFFPRP", "shrunken log2 fold change": 0.0585}
{"sequence": "RRIRTRPPRLPRPRPRPFGQPRP", "shrunken log2 fold change": -0.0675}
{"sequence": "RRIRCRPPRLPRPRPRPHIIPRP", "shrunken log2 fold change": -0.11}
{"sequence": "RRIRLRPPRLPRPRPRPNITPRP", "shrunken log2 fold change": -0.327}
{"sequence": "RRIRSRPPRLPRPRPRPWEHPRP", "shrunken log2 fold change": 0.089}
{"sequence": "RRIRARPPRLPRPRPRPTYAPRP", "shrunken log2 fold change": 0.2}
{"sequence": "RRIRNRPPRLPRPRPRPNCPPRP", "shrunken log2 fold change": -0.361}
{"sequence": "RRIRIRPPRLPRPRPRPCRWPRP", "shrunken log2 fold change": 0.0527}
{"sequence": "RRIRFRPPRLPRPRPRPPWTPRP", "shrunken log2 fold change": 0.123}
{"sequence": "RRIRVRPPRLPRPRPRPPSFPRP", "shrunken log2 fold change": 0.0364}
{"sequence": "RRIRMRPPRLPRPRPRPENHPRP", "shrunken log2 fold change": 0.0929}
{"sequence": "RRIRPRPPRLPRPRPRPMREPRP", "shrunken log2 fold change": 1.07}
{"sequence": "RRIRYRPPRLPRPRPRPAIYPRP", "shrunken log2 fold change": -0.121}
{"sequence": "RRIRHRPPRLPRPRPRPISRPRP", "shrunken log2 fold change": -0.0532}
{"sequence": "RRIRMRPPRLPRPRPRPTPEPRP", "shrunken log2 fold change": 0.713}
{"sequence": "RRIRYRPPRLPRPRPRPSTYPRP", "shrunken log2 fold change": -0.332}
{"sequence": "RRIRIRPPRLPRPRPRPCGRPRP", "shrunken log2 fold change": 0.0552}
{"sequence": "RRIRPRPPRLPRPRPRPEGNPRP", "shrunken log2 fold change": 0.189}
{"sequence": "RRIRIRPPRLPRPRPRPFIMPRP", "shrunken log2 fold change": -0.187}
{"sequence": "RRIRPRPPRLPRPRPRPPIKPRP", "shrunken log2 fold change": 0.355}
{"sequence": "RRIRPRPPRLPRPRPRPMYVPRP", "shrunken log2 fold change": -1.06}
{"sequence": "RRIRMRPPRLPRPRPRPEGGPRP", "shrunken log2 fold change": 1.33}
{"sequence": "RRIRLRPPRLPRPRPRPTNFPRP", "shrunken log2 fold change": -0.0757}
{"sequence": "RRIRCRPPRLPRPRPRPKLHPRP", "shrunken log2 fold change": -0.113}
{"sequence": "RRIRRRPPRLPRPRPRPERPPRP", "shrunken log2 fold change": 0.991}
{"sequence": "RRIRYRPPRLPRPRPRPHYLPRP", "shrunken log2 fold change": -0.285}
{"sequence": "RRIRRRPPRLPRPRPRPAWGPRP", "shrunken log2 fold change": 0.508}
{"sequence": "RRIRHRPPRLPRPRPRPELWPRP", "shrunken log2 fold change": 0.376}
{"sequence": "RRIRRRPPRLPRPRPRPQHNPRP", "shrunken log2 fold change": 0.0256}
{"sequence": "RRIRCRPPRLPRPRPRPHIYPRP", "shrunken log2 fold change": -0.954}
{"sequence": "RRIRSRPPRLPRPRPRPTEMPRP", "shrunken log2 fold change": 0.233}
{"sequence": "RRIRLRPPRLPRPRPRPIVVPRP", "shrunken log2 fold change": -0.0319}
{"sequence": "RRIRGRPPRLPRPRPRPGGWPRP", "shrunken log2 fold change": 1.58}
{"sequence": "RRIRDRPPRLPRPRPRPSGVPRP", "shrunken log2 fold change": 0.119}
{"sequence": "RRIRKRPPRLPRPRPRPEPNPRP", "shrunken log2 fold change": 0.737}
{"sequence": "RRIRQRPPRLPRPRPRPYCDPRP", "shrunken log2 fold change": -0.431}
{"sequence": "RRIRKRPPRLPRPRPRPNFTPRP", "shrunken log2 fold change": 0.156}
{"sequence": "RRIRERPPRLPRPRPRPVQRPRP", "shrunken log2 fold change": 0.0476}
{"sequence": "RRIRLRPPRLPRPRPRPEMRPRP", "shrunken log2 fold change": 0.0659}
{"sequence": "RRIRVRPPRLPRPRPRPSFRPRP", "shrunken log2 fold change": -0.42}
{"sequence": "RRIRYRPPRLPRPRPRPEGCPRP", "shrunken log2 fold change": 0.204}
{"sequence": "RRIRRRPPRLPRPRPRPMNHPRP", "shrunken log2 fold change": -0.281}
{"sequence": "RRIRLRPPRLPRPRPRPIALPRP", "shrunken log2 fold change": -0.0572}
{"sequence": "RRIRRRPPRLPRPRPRPEFWPRP", "shrunken log2 fold change": 0.736}
{"sequence": "RRIRWRPPRLPRPRPRPDIHPRP", "shrunken log2 fold change": -0.196}
{"sequence": "RRIRTRPPRLPRPRPRPLSFPRP", "shrunken log2 fold change": -0.124}
{"sequence": "RRIRHRPPRLPRPRPRPFILPRP", "shrunken log2 fold change": -0.675}
{"sequence": "RRIRNRPPRLPRPRPRPDGFPRP", "shrunken log2 fold change": -0.104}
{"sequence": "RRIRGRPPRLPRPRPRPDTMPRP", "shrunken log2 fold change": 0.00209}
{"sequence": "RRIRFRPPRLPRPRPRPDSKPRP", "shrunken log2 fold change": -0.788}
{"sequence": "RRIRIRPPRLPRPRPRPPQCPRP", "shrunken log2 fold change": -0.244}
{"sequence": "RRIRDRPPRLPRPRPRPKDAPRP", "shrunken log2 fold change": -0.018}
{"sequence": "RRIRRRPPRLPRPRPRPACDPRP", "shrunken log2 fold change": 0.539}
{"sequence": "RRIRGRPPRLPRPRPRPYTRPRP", "shrunken log2 fold change": -0.0484}
{"sequence": "RRIRNRPPRLPRPRPRPAVGPRP", "shrunken log2 fold change": 0.543}
{"sequence": "RRIRDRPPRLPRPRPRPPIRPRP", "shrunken log2 fold change": 0.173}
{"sequence": "RRIRPRPPRLPRPRPRPTYYPRP", "shrunken log2 fold change": -0.636}
{"sequence": "RRIRVRPPRLPRPRPRPYILPRP", "shrunken log2 fold change": -0.278}
{"sequence": "RRIRQRPPRLPRPRPRPCIGPRP", "shrunken log2 fold change": -0.204}
{"sequence": "RRIRARPPRLPRPRPRPKIEPRP", "shrunken log2 fold change": 0.173}
{"sequence": "RRIRARPPRLPRPRPRPQSLPRP", "shrunken log2 fold change": 0.026}
{"sequence": "RRIRKRPPRLPRPRPRPFFIPRP", "shrunken log2 fold change": -0.061}
{"sequence": "RRIRIRPPRLPRPRPRPYMPPRP", "shrunken log2 fold change": -1.27}
{"sequence": "RRIRTRPPRLPRPRPRPQPLPRP", "shrunken log2 fold change": 0.284}
{"sequence": "RRIRLRPPRLPRPRPRPDYSPRP", "shrunken log2 fold change": 0.14}
{"sequence": "RRIRDRPPRLPRPRPRPQWAPRP", "shrunken log2 fold change": 0.326}
{"sequence": "RRIRPRPPRLPRPRPRPLKGPRP", "shrunken log2 fold change": 0.045}
{"sequence": "RRIRIRPPRLPRPRPRPNANPRP", "shrunken log2 fold change": -0.252}
{"sequence": "RRIRIRPPRLPRPRPRPHFCPRP", "shrunken log2 fold change": -0.139}
{"sequence": "RRIRFRPPRLPRPRPRPFMDPRP", "shrunken log2 fold change": -0.00928}
{"sequence": "RRIRYRPPRLPRPRPRPFQLPRP", "shrunken log2 fold change": -0.0518}
{"sequence": "RRIRFRPPRLPRPRPRPMWPPRP", "shrunken log2 fold change": -0.0873}
{"sequence": "RRIRRRPPRLPRPRPRPEYTPRP", "shrunken log2 fold change": 0.166}
{"sequence": "RRIRLRPPRLPRPRPRPEYCPRP", "shrunken log2 fold change": 0.0552}
{"sequence": "RRIRRRPPRLPRPRPRPANGPRP", "shrunken log2 fold change": -0.164}
{"sequence": "RRIRERPPRLPRPRPRPVSEPRP", "shrunken log2 fold change": 0.164}
{"sequence": "RRIRQRPPRLPRPRPRPMRGPRP", "shrunken log2 fold change": 0.904}
{"sequence": "RRIRQRPPRLPRPRPRPINIPRP", "shrunken log2 fold change": -0.21}
{"sequence": "RRIRGRPPRLPRPRPRPDMEPRP", "shrunken log2 fold change": 0.864}
{"sequence": "RRIRYRPPRLPRPRPRPECAPRP", "shrunken log2 fold change": -0.126}
{"sequence": "RRIRDRPPRLPRPRPRPYCRPRP", "shrunken log2 fold change": 0.0533}
